Reference: patent publication US20260242735A1 (UNIVERSIT T BASEL, published 2026)

Key:
Assay in all cases: alanine scan, flow cytometry, HEK293-T;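 note: antibody binding to each alanine-substituted CD33 mutant expressed transiently in HEK293-T, read as fluorescence minus background, mean of duplicates, relative to wild-type CD33 set as 100%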
[1] = biological target: human CD33 K313A (human, UniProt P20138 18-364)
[2] = biological target: human CD33 C276A (human, UniProt P20138 18-364)
[3] = biological target: human CD33 A293S (human, UniProt P20138 18-364)
[4] = biological target: human CD33 A255S (human, UniProt P20138 18-364)
[5] = biological target: human CD33 K309A (human, UniProt P20138 18-364)
[6] = biological target: human CD33 T292A (human, UniProt P20138 18-364)
[7] = biological target: human CD33 G249A (human, UniProt P20138 18-364)
[8] = biological target: human CD33 F280A (human, UniProt P20138 18-364)
[9] = biological target: human CD33 S314A (human, UniProt P20138 18-364)
[10] = biological target: human CD33 I281A (human, UniProt P20138 18-364)
[11] = biological target: human CD33 H300A (human, UniProt P20138 18-364)
[12] = biological target: human CD33 F243A (human, UniProt P20138 18-364)
[13] = biological target: human CD33 L273A (human, UniProt P20138 18-364)
[14] = biological target: human CD33 F279A (human, UniProt P20138 18-364)
[15] = biological target: human CD33 G260A (human, UniProt P20138 18-364)
Chain of human CD33 G260A (P20138 18-364 G260A limits assumed): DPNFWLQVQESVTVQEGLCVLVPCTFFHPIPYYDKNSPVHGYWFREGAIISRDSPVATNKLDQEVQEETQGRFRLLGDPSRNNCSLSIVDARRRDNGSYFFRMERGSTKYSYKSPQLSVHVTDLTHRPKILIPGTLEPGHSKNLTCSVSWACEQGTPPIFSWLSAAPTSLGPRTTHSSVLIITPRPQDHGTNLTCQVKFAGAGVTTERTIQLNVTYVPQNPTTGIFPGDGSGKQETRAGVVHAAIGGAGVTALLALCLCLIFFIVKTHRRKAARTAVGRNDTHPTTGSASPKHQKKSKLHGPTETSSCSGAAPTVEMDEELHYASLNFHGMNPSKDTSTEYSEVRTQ

Chain of human CD33 A293S (P20138 18-364 A293S limits assumed): as the sequence (P20138 18-364 G260A limits assumed) above, with A243G, A276S counted along it
Chain of human CD33 A255S (P20138 18-364 A255S limits assumed): as the sequence (P20138 18-364 G260A limits assumed) above, with A238S, A243G counted along it
Chain of human CD33 F279A (P20138 18-364 F279A limits assumed): as the sequence (P20138 18-364 G260A limits assumed) above, with A243G, F262A counted along it
Chain of human CD33 H300A (P20138 18-364 H300A limits assumed): as the sequence (P20138 18-364 G260A limits assumed) above, with A243G, H283A counted along it
Chain of human CD33 K309A (P20138 18-364 K309A limits assumed): as the sequence (P20138 18-364 G260A limits assumed) above, with A243G, K292A counted along it
Chain of human CD33 G249A (P20138 18-364 G249A limits assumed): as the sequence (P20138 18-364 G260A limits assumed) above, with G232A, A243G counted along it
Chain of human CD33 S314A (P20138 18-364 S314A limits assumed): as the sequence (P20138 18-364 G260A limits assumed) above, with A243G, S297A counted along it
Chain of human CD33 F243A (P20138 18-364 F243A limits assumed): as the sequence (P20138 18-364 G260A limits assumed) above, with F226A, A243G counted along it
Chain of human CD33 T292A (P20138 18-364 T292A limits assumed): as the sequence (P20138 18-364 G260A limits assumed) above, with A243G, T275A counted along it
Chain of human CD33 C276A (P20138 18-364 C276A limits assumed): as the sequence (P20138 18-364 G260A limits assumed) above, with A243G, C259A counted along it
Chain of human CD33 K313A (P20138 18-364 K313A limits assumed): as the sequence (P20138 18-364 G260A limits assumed) above, with A243G, K296A counted along it
Chain of human CD33 F280A (P20138 18-364 F280A limits assumed): as the sequence (P20138 18-364 G260A limits assumed) above, with A243G, F263A counted along it
Chain of human CD33 I281A (P20138 18-364 I281A limits assumed): as the sequence (P20138 18-364 G260A limits assumed) above, with A243G, I264A counted along it
Chain of human CD33 L273A (P20138 18-364 L273A limits assumed): as the sequence (P20138 18-364 G260A limits assumed) above, with A243G, L256A counted along it

Mean % WT Binding [1]	Mean % WT Binding [2]	Mean % WT Binding [3]	Mean % WT Binding [4]	Mean % WT Binding [5]	Mean % WT Binding [6]	Mean % WT Binding [7]	Mean % WT Binding [8]	Mean % WT Binding [9]	Mean % WT Binding [10]	Mean % WT Binding [11]	Mean % WT Binding [12]	Mean % WT Binding [13]	Mean % WT Binding [14]	Mean % WT Binding [15]	Binder
137 % WT binding	115 % WT binding	72.9 % WT binding	97.7 % WT binding	92 % WT binding	99.6 % WT binding	132 % WT binding	99 % WT binding	139 % WT binding	91 % WT binding	68.3 % WT binding	107 % WT binding	125 % WT binding	138 % WT binding	140 % WT binding	Refmab #3 (antibody, V domains shown, The alanine scan used IgG or Fab) VH: QVQLVQSGAEVKKPGSSVKVSCKASGYTFTDYNMHWVRQAPGQGLEWIGYIYPYNGGTGYNQKFKSKATITADESTNTAYMELSSLRSEDTAVYYCARGRPAMDYWGQGTLVTVSS VL: DIQMTQSPSSLSASVGDRVTITCRASESVDNYGISFMNWFQQKPGKAPKLLIYAASNQGSGVPSRFSGSGSGTDFTLTISSLQPDDFATYYCQQSKEVPWTFGQGTKVEIK
87.7 % WT binding	96.9 % WT binding	106 % WT binding	113 % WT binding	99.9 % WT binding	100 % WT binding	111 % WT binding	92.3 % WT binding	95.5 % WT binding	122 % WT binding	95.2 % WT binding	69.9 % WT binding	115 % WT binding	103 % WT binding	106 % WT binding	Refmab #4 (antibody, V domains shown, The alanine scan used IgG or Fab) VH: QVQLVQSGAEVKKPGESVKVSCKASGYTFTNYGMNWVKQAPGQGLEWMGWINTYTGEPTYADKFQGRVTMTTDTSTSTAYMEIRNLGGDDTAVYYCARWSWSDGYYVYFDYWGQGTSVTVSS VL: DIVMTQSPDSLTVSLGERTTINCKSSQSVLDSSTNKNSLAWYQQKPGQPPKLLLSWASTRESGIPDRFSGSGSGTDFTLTIDSPQPEDSATYYCQQSAHFPITFGQGTRLEIK
